Measured values: PMC12278311, “PNUTS:PP1 recruitment to Tox4 regulates chromosomal dispersal in Drosophila germline development” (Cell reports, 2025)
Where a chain is given by its changes, count along the chain named. Names may count otherwise.

Tests used:
Conditions in all cases: both partners purified
[1] = target: T1, PNUTS N-terminal domain (TND), rat, residues 5-160, C48S (rat, C48S); experiment: ITC; Tox4 titrated into PNUTS; Affinity-ITC, 25 °C; 20 mM Tris pH 8.5, 150 mM NaCl, 0.1 mM ZnSO4, 0.5 mM TCEP; one-site model assuming 1:1 stoichiometry; 3 replicates
T1 construct: PP1 nuclear targeting subunit (PNUTS, PPP1R10), rat, residues 5-160; Cloned in pRP1b; His6 tag cleaved with TEV protease; also called PNUTS C48S; PNUTS5-160 C48S; source: E. coli BL21 (DE3), purified (HisTrap, TEV cleavage, Ni-NTA flow-through, SEC)
T1 chain: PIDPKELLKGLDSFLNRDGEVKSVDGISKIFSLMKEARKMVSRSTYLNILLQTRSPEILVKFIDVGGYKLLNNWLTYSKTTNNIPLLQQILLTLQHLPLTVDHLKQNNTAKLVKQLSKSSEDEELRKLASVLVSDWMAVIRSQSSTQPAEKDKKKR

[2] = target: T2, PNUTS TND (rat PNUTS 5-160, C48S) (rat, UniProt O55000 5-160, C48S); experiment: NMR titration; 2D [1H,15N] HSQC of 15N-labelled PNUTS with zinc-loaded Tox4 at a 1:2 molar ratio; 20 mM MES pH 6, 150 mM NaCl, 5 mM DTT; 298 K
T2 construct: PNUTS (PPP1R10), rat, N-terminal TFIIS domain, residues 5-160; cloned in pRP1b; 15N-labelled for NMR; also called PNUTS N-terminal domain; PNUTS NTD; source: E. coli BL21 (DE3), purified (HisTrap, TEV cleavage, Ni-NTA flow-through, SEC)
T2 sequence (looked up): T1 chain with N16T, S28A, L50I, S55A, I58V, N73S

[3] = target: T2, PNUTS TND (rat PNUTS 5-160, C48S); experiment: ITC; Tox4 titrated into PNUTS at 25°C; 20 mM Tris pH 8.5, 150 mM NaCl, 0.1 mM ZnSO4, 0.5 mM TCEP; one-site model assuming 1:1

B1: Tox4 C-terminal domain, human, residues 571-621, C601S (domain or fragment)
chain: RCVRSGCENPPIVSKDWDNEYCSNECVVKHSRDVFLAWVASRNSNTVVFVK
notes: TOX4, human, residues 571-621; Cloned in pTHMT (His6-MBP-TEV site); also called TOX4 C601S; Tox4571-621 C601S; source: E. coli BL21 (DE3) with 0.1 mM ZnSO4, purified (HisTrap, TEV cleavage, Ni-NTA and amylose resin, SEC); not shown: His6, N-terminal, cleaved; MBP, N-terminal, cleaved
[1]
  Kd: 0.3 ± 0.2 nM

B2: Tox4 CTD (human Tox4 571-621) (domain or fragment, UniProt O94842 571-621, looked up)
chain: B1 chain with S31C
notes: TOX4, human, C-terminal domain, residues 571-621; also called Tox4 C-terminal domain; zinc-loaded Tox4; source: E. coli BL21 (DE3) with 0.1 mM ZnSO4, purified (HisTrap, TEV cleavage, amylose resin, SEC); not shown: His6, N-terminal, cleaved; MBP, N-terminal, cleaved
[2]
  binding result: binds

B3: Tox4 CTD (human Tox4 571-621, C601S) (domain or fragment, UniProt O94842 571-621, looked up)
chain: B1 chain
notes: TOX4, human, C-terminal domain, residues 571-621; also called Tox4_(C601S); source: E. coli BL21 (DE3) with 0.1 mM ZnSO4, purified (HisTrap, TEV cleavage, amylose resin, SEC); not shown: His6, N-terminal, cleaved; MBP, N-terminal, cleaved
[3]
  Kd: 0.3 nM
